In patent US20090298167A1 (Pfizer, published 2009):

T1: human gamma common chain expressed on CHO cells (human, UniProt P31785 23-369)
T1 construct: whole, on cells; Control protein; also called human IL-2R-γ common subunit; human gamma (γ) common chain
T1 sequence (looked up): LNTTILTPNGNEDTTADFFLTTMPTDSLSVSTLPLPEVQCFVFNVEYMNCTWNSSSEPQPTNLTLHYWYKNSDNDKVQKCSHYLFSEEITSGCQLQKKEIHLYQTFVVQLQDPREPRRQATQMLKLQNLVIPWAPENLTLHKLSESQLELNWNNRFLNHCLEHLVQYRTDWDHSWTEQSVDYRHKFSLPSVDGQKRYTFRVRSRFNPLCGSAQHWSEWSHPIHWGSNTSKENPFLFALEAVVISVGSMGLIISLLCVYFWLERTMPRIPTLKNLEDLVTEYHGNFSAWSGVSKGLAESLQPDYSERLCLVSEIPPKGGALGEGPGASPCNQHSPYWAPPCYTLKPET

T2: human IL-2Rβ (human, UniProt P14784 27-239)
T2 construct: Bought
T2 sequence (looked up): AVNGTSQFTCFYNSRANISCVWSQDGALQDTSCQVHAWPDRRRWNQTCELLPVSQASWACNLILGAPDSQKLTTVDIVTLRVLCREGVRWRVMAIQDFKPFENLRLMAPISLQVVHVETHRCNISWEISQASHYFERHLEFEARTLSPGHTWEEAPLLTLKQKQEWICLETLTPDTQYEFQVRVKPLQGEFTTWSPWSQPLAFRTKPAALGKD


Legend:
[1] = target: T3, human IL-21R expressed on cells (human, UniProt Q9HBE5 20-538); assay: cell-based or functional assay
T3 sequence (Q9HBE5 20-538 limits assumed): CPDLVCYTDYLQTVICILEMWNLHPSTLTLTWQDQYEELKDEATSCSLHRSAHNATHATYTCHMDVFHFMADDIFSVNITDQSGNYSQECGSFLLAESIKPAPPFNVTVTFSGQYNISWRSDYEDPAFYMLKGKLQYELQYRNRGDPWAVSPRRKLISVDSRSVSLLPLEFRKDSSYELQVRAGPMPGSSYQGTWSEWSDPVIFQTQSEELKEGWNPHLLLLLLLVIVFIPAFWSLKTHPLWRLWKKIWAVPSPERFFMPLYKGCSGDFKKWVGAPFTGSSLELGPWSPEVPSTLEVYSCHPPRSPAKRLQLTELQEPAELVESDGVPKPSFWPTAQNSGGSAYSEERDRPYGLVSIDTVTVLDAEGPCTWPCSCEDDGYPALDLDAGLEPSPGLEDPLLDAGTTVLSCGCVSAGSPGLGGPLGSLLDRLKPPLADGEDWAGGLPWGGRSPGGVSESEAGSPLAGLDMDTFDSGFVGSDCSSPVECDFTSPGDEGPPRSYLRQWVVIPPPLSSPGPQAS

[2] = target: T4, murine IL-21R expressed on cells (murine, UniProt Q9JHX3 20-529); assay: cell-based or functional assay
T4 sequence (Q9JHX3 20-529 limits assumed): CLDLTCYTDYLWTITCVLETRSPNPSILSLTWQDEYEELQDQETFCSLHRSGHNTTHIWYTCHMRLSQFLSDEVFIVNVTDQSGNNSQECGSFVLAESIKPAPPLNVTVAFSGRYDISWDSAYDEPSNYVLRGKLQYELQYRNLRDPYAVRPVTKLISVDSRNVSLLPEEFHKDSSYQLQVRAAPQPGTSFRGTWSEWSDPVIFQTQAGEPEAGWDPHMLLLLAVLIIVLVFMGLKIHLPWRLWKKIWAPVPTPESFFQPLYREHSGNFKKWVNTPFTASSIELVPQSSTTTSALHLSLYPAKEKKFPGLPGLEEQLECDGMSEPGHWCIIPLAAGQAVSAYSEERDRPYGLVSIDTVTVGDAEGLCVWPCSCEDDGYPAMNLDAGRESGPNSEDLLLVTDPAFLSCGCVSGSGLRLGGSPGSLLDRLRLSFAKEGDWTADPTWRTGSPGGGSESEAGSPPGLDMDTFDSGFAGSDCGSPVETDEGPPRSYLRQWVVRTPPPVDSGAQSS

[3] = target: T3, human IL-21R expressed on cells; assay: cell ELISA on transfected CHO cells, 13 nM IgG
Description: (§1) A subset of binding proteins was tested for binding to rat, cynomolgus monkey, human IL-21R, or human IL-2R-γ common subunit expressed transiently on the surfaces of CHO-PA-Dukx cells. Cells were transfected 48 hr prior to the assay. On the day of the assay, cells were washed gently 5× in PBS containing 0.9 mM CaCl₂ and 0.45 mM MgCl₂ (PBS/CaMg) on an automated plate washer (Titertek, Huntsville, Ala.), and blocked for 1 hr at RT in PBS/CaMg/5% nonfat dry milk. Conditioned media from transiently expressed anti-IL-21R IgGs were serially diluted in blocking buffer and added to the cells in the blocked plates for 1 hr at RT. Cells were washed 5× with PBS/CaMg and then incubated with horseradish peroxidase-conjugated anti-human IgG for 1 hr at RT. Cells were then washed 10× in PBS/CaMg and all of the wash buffer was removed. Cells were incubated with 100 μl TMB until the color reaction reached saturation, stopped with 100 μl of 0.18 M H₂SO₄, and read at A450 on a Perkin Elmer ENVISION™ plate reader.

[4] = target: T5, rat IL-21R expressed on cells (rat); assay: cell ELISA on transfected CHO cells, 13 nM IgG
T5 construct: whole, on cells; Transiently transfected CHO-PA-Dukx cells
Description: as §1

[5] = target: T6, cynomolgus monkey IL-21R expressed on CHO cells (cynomolgus monkey); assay: cell ELISA on transfected CHO cells, 13 nM IgG
T6 construct: whole, on cells
Description: as §1

[6] = target: T3, human IL-21R expressed on cells; assay: cell ELISA: CHO cells transiently expressing the receptor, antibody in conditioned medium, HRP anti-human IgG, A450
Description: FIG. 6 depicts the binding of 21 anti-IL-21R IgGs to CHO cells transiently expressing human IL-21R (FIGS. 6a-c), rat IL-21R (FIGS. 6d-f), cynomolgus monkey IL-21R (FIGS. 6g-i), and human gamma common chain (FIGS. 6j-l). CHO cells were transiently transfected with IL-21R or the control gamma common chain, and binding was detected with HRP-conjugated anti-human IgG in a cell-based ELISA.
as §1

[7] = target: T3, human IL-21R expressed on cells; assay: cell-based or functional assay; remark: listed apart in the source
[8] = target: T4, murine IL-21R expressed on cells; assay: cell-based or functional assay; remark: listed apart in the source
[9] = target: T1, human gamma common chain expressed on …; assay: cell ELISA on transfected CHO cells, 13 nM IgG
Description: as §1

human IL-2Rβ = target: T2, human IL-2Rβ; assay: BIACORE: antibody captured on anti-human IgG, 50 nM analyte injected
Description: (§2) The specificity of binding of a subset of transiently expressed anti-IL-21R binding proteins (here antibodies) was tested on a BIACORE™ 2000 surface plasmon resonance instrument. Anti-human-IgG, anti-murine immunoglobulin antibodies, and murine IL-21R-H/F were immobilized onto a research-grade carboxymethyl-dextran chip (CM5) using standard amine coupling. The sensor chip surface was activated with EDC/NHS for 7 min at a flow rate of 20 μl/min. The first flow cell was used as reference surface to correct for bulk refractive index, matrix effects, and nonspecific binding. […] Remaining activated groups were blocked with 1.0 M ethanolamine (pH 8.0). The molecular weights of the anti-human IgG and the anti-murine IgG were both 150 kD, and the molecular weight of the IL-21R monomer was 27 kD.
(§3) Conditioned media containing anti-IL-21R antibodies and antibody controls (murine anti-human IL-2Rβ and murine anti-human IL-4R(R&D Systems, Minneapolis, Minn.); human anti-human IL-13 (Wyeth, Cambridge, Mass.)) were diluted in HBS/EP buffer supplemented with 0.2% bovine serum and injected onto all four flow cells of the BIACORE™ chip, capturing 500-700 (RU) of antibody on the species-appropriate capture antibody. Following a 5 sec washing period, 50 nM solutions of a positive control protein (murine IL-21R-H/F), two human proteins related to IL-21R (human IL-2Rβ and human sIL-4R(R&D Systems)), or an unrelated His/FLAG-tagged protein (human IL-13-H/F), were injected over the captured antibodies on the chip. The association and dissociation phases were monitored for 120 and 180 sec, respectively, followed by two 5 μl injections of glycine (pH 1.5) to regenerate a fully active capturing surface. All binding experiments were done at 25° C. in HBS/EP buffer. Blank and buffer effects were subtracted for each sensorgram using double referencing.

human soluble IL-4R = target: T7, human soluble IL-4R (human, UniProt P24394 26-231, limits assumed); assay: as above
T7 construct: soluble; also called human sIL-4R
T7 sequence (P24394 26-231 limits assumed): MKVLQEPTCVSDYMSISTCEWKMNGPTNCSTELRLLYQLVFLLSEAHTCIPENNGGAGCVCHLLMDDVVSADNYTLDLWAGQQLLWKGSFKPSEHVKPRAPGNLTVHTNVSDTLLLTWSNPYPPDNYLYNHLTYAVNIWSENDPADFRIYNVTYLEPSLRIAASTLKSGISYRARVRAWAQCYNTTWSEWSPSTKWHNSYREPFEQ
Description: as §2, §3

human IL-13-His/FLAG = target: T8, human IL-13-His/FLAG (human, UniProt P35225 35-146, limits assumed); assay: as above
T8 construct: Unrelated His/FLAG-tagged control; also called human IL-13-H/F
T8 sequence (P35225 35-146 limits assumed): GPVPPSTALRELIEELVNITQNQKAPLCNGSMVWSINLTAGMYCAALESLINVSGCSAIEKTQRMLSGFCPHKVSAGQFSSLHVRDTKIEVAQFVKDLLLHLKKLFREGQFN
Description: as §2, §3

[10] = target: T6, cynomolgus monkey IL-21R expressed on …; assay: cell ELISA: CHO cells transiently expressing the receptor, antibody in conditioned medium, HRP anti-human IgG, A450
Description: as §1

[11] = target: T3, human IL-21R expressed on cells; assay: cell-based or functional assay; remark: listed apart in the source
[12] = target: T4, murine IL-21R expressed on cells; assay: cell-based or functional assay; remark: listed apart in the source
[13] = target: T3, human IL-21R expressed on cells; assay: cell-based or functional assay; remark: listed apart in the source
[14] = target: T5, rat IL-21R expressed on cells; assay: cell-based or functional assay

Binder	Human IL-21R-BaF3 Proliferation IC50 [1]	Human IL-21R-TF1 Proliferation IC50 [1]	Murine IL-21R-BaF3 Proliferation IC50 [2]	A450 at 13 nM Ab in cell ELISA [3]	A450 at 13 nM Ab in cell ELISA [4]	A450 at 13 nM Ab in cell ELISA [5]	EC50 (read off the curve) [6]	Neutralization of T cell Proliferation IC50 (nM), human primary CD4+ T cells [7]	Neutralization of T cell Proliferation IC50 (nM), murine primary CD8+ T cells [8]	A450 at 13 nM Ab in cell ELISA [9]	binding result (human IL-2Rβ)	binding result (human soluble IL-4R)	binding result (human IL-13-His/FLAG)	EC50 (read off the curve) [10]	Human IL-21R-BaF3 Neutralization IC50 [11]	Human IL-21R-TF1 Neutralization IC50 [11]	Murine IL-21R-BaF3 Neutralization IC50 [12]	Neutralization of B cell proliferation IC50 [13]	IC50 (nM) experiment 1, rat T cell proliferation [14]	IC50 (nM) experiment 2, rat T cell proliferation [14]
AbD (antibody, human IgG1, V domains shown, Full-length human IgG1 / human lambda, transient, conditioned medium; Framework limits derived; also called VHP/VL13) VH: QVQLQESGPGLVKPSETLSLTCAVSGYSISSGYYWGWIRQPPGKGLEWIGSISHTGNTYYNPPLKSRVTISVDTSKNQFSLKLSSVTAADTAVYYCARGGGISRPEYWGQGTLVTVSS VL: SSELTQDPAVSVALGQTVRITCQGDSLRTYYASWYQQKPGQAPVLVIYGKHKRPSGIPDRFSGSSSGNTASLTITGAQAEDEADYYCVTRNRYGNPHVLFGGGTQLTVL	0.91 nM	2.67 nM	0.01 nM	1.25 A450	0.874 A450	1.38 A450	~1 nM													
AbO (antibody, human IgG1, V domains shown, Human IgG1 triple-mutant (L234A, L235A, G237A); Framework limits derived; also called VHP/VL16; VHPTM/VL16) VH: QVQLQESGPGLVKPSETLSLTCAVSGYSISSGYYWGWIRQPPGKGLEWIGSISHTGNTYYNPPLKSRVTISVDTSKNQFSLKLSSVTAADTAVYYCARGGGISRPEYWGQGTLVTVSS VL: SSELTQDPAVSVALGQTVRITCQGDSLRTYYASWYQQKPGQAPVLVIYGKHKRPSGIPDRFSGSSSGNTASLTITGAQAEDEADYYCVTRSAKGNPHVLFGGGTQLTVL	0.52 nM	2.91 nM	0.065 nM	1.11 A450	1.1 A450	1.36 A450	~0.3 nM	0.06 nM	4.92 nM	0.108 A450	no binding (tested: 50 nM)	no binding (tested: 50 nM)	no binding (tested: 50 nM)							
AbL (antibody, human IgG1, V domains shown, Full-length human IgG1 / human lambda, transient, conditioned medium; Framework limits derived; also called VH3/VL13) VH: QVQLQESGPGLVKPSETLSLTCAVSGYSISSGYYWGWIRQPPGKGLEWIGSISHTGNTYYNPPLKSRVTISVDTSKNQFSLKLSSVTAADTAVYYCARFMGFGRPEYWGQGTLVTVSS VL: SSELTQDPAVSVALGQTVRITCQGDSLRTYYASWYQQKPGQAPVLVIYGKHKRPSGIPDRFSGSSSGNTASLTITGAQAEDEADYYCVTRNRYGNPHVLFGGGTQLTVL	0.68 nM	4.25 nM	0.227 nM	1.45 A450	1.26 A450	1.51 A450								~0.8 nM						
AbS (antibody, human IgG1, V domains shown, Human IgG1 triple-mutant (L234A, L235A, G237A); Framework limits derived; also called VHP/VL6; VHPTM/VL6) VH: QVQLQESGPGLVKPSETLSLTCAVSGYSISSGYYWGWIRQPPGKGLEWIGSISHTGNTYYNPPLKSRVTISVDTSKNQFSLKLSSVTAADTAVYYCARGGGISRPEYWGQGTLVTVSS VL: SSELTQDPAVSVALGQTVRITCQGDSLRTYYASWYQQKPGQAPVLVIYGKHKRPSGIPDRFSGSSSGNTASLTITGAQAEDEADYYCMSRSIWGNPHVLFGGGTQLTVL	1.53 nM	5 nM	0.04 nM	1.02 A450	1.17 A450	1.22 A450		0.06 nM	0.02 nM	0.118 A450	no binding (tested: 50 nM)	no binding (tested: 50 nM)	no binding (tested: 50 nM)		0.68 nM	6.67 nM	0.04 nM	0.44 nM	36 nM	27.1 nM
